Blank lines part the entries; values can stand above or below the binder they belong to.
Key:
[1] = molecular target: human SIRPA W315A (V5-tagged library clone on HEK-293T cells) (human, UniProt P78324 31-504); assay: flow cytometry of Fab on HEK-293T cells expressing the mutant, normalised to wild-type SIRPA
Procedure: (§1) Epitope mapping of anti-SIRPA antibodies was performed using an alanine-scanning library created by shotgun mutagenesis of the human SIRPA cDNA sequence. […] Each of the residues representing the SIRPA extracellular domain (amino acids 31-374 of SEQ ID NO:1) was mutated, most to alanine, while alanine codons were mutated to serine.
(§2) The SIRPA mutant library clones, arrayed in a 384-well microplate, were transfected individually into HEK-293T cells and allowed to express for 22 hours. Antibodies were digested to generate Fabs, after which cells were incubated with Fabs diluted in 10% normal goat serum (NGS) (Sigma-Aldrich, St. Louis, MO). Prior to library screening, primary Fab concentrations were determined using an independent immunofluorescence titration curve against cells expressing wild type SIRPA to ensure that signals were within the linear range of detection. Fabs were detected using 7.5 μg/ml AlexaFluor488-conjugated secondary antibody (Jackson ImmunoResearch Laboratories, Westgrove, PA) in 10% NGS. Cells were washed twice with PBS and resuspended in Cellstripper (Cellgro, Manassas, VA) with 0.1% BSA (Sigma-Aldrich, St. Louis, MO). In some cases, higher stringency conditions were used, including increased pH, increased temperature, and increased dissociation time. Mean cellular fluorescence was detected using the Intellicyt high throughput flow cytometer (HTFC, Intellicyt, Albuquerque, NM). Fab reactivities against each mutant clone were calculated relative to wild-type SIRPA protein reactivity by subtracting the signal from mock-transfected controls, and normalizing to the signal from wild-type SIRPA transfected controls.

[2] = molecular target: human SIRPA V302A (V5-tagged library clone on HEK-293T cells) (human, UniProt P78324 31-504); assay: as above
Sequence of human SIRPA V302A (V5-tagged library clone on HEK-293T cells) (P78324 31-504 V302A): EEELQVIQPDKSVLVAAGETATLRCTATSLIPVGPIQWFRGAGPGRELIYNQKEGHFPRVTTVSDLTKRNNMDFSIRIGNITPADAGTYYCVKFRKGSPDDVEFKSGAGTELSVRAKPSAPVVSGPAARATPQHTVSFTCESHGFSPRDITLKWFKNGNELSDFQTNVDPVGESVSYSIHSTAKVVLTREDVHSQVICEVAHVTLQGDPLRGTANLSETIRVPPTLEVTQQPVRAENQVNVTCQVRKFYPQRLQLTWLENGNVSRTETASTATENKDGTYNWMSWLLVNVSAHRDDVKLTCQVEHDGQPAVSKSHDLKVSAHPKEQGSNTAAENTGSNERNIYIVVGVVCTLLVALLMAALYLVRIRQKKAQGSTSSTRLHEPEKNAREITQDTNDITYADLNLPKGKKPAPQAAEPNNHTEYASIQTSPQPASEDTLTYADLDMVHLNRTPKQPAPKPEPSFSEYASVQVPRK
Procedure: as §1, §2

[3] = molecular target: human SIRPA Q284A (V5-tagged library clone on HEK-293T cells) (human, UniProt P78324 31-504); assay: as above
Sequence of human SIRPA Q284A (V5-tagged library clone on HEK-293T cells) (P78324 31-504 Q284A): as the sequence (P78324 31-504 V302A) above, with Q254A, A272V counted along it
Procedure: as §1, §2

[4] = molecular target: human SIRPA R295A (V5-tagged library clone on HEK-293T cells) (human, UniProt P78324 31-504); assay: as above
Sequence of human SIRPA R295A (V5-tagged library clone on HEK-293T cells) (P78324 31-504 R295A): as the sequence (P78324 31-504 V302A) above, with R265A, A272V counted along it
Procedure: as §1, §2

[5] = molecular target: human SIRPA G337A (V5-tagged library clone on HEK-293T cells) (human, UniProt P78324 31-504); assay: as above
Sequence of human SIRPA G337A (V5-tagged library clone on HEK-293T cells) (P78324 31-504 G337A): as the sequence (P78324 31-504 V302A) above, with A272V, G307A counted along it
Procedure: as §1, §2

[6] = molecular target: human SIRPA L285A (V5-tagged library clone on HEK-293T cells) (human, UniProt P78324 31-504); assay: as above
Sequence of human SIRPA L285A (V5-tagged library clone on HEK-293T cells) (P78324 31-504 L285A): as the sequence (P78324 31-504 V302A) above, with L255A, A272V counted along it
Procedure: as §1, §2

[7] = molecular target: human SIRPA R282A (V5-tagged library clone on HEK-293T cells) (human, UniProt P78324 31-504); assay: as above
Sequence of human SIRPA R282A (V5-tagged library clone on HEK-293T cells) (P78324 31-504 R282A): as the sequence (P78324 31-504 V302A) above, with R252A, A272V counted along it
Procedure: as §1, §2

[8] = molecular target: human SIRPA Q281A (V5-tagged library clone on HEK-293T cells) (human, UniProt P78324 31-504); assay: as above
Sequence of human SIRPA Q281A (V5-tagged library clone on HEK-293T cells) (P78324 31-504 Q281A): as the sequence (P78324 31-504 V302A) above, with Q251A, A272V counted along it
Procedure: as §1, §2

[9] = molecular target: human SIRPA W287A (V5-tagged library clone on HEK-293T cells) (human, UniProt P78324 31-504); assay: as above
Sequence of human SIRPA W287A (V5-tagged library clone on HEK-293T cells) (P78324 31-504 W287A): as the sequence (P78324 31-504 V302A) above, with W257A, A272V counted along it
Procedure: as §1, §2

[10] = molecular target: human SIRPA E297A (V5-tagged library clone on HEK-293T cells) (human, UniProt P78324 31-504); assay: as above
Sequence of human SIRPA E297A (V5-tagged library clone on HEK-293T cells) (P78324 31-504 E297A): as the sequence (P78324 31-504 V302A) above, with E267A, A272V counted along it
Procedure: as §1, §2

[11] = molecular target: T1, human SIRPA on human macrophages (primary monocyte-derived macrophages; U937 line) (human, UniProt P78324 31-504); assay: cell-based or functional assay
T1 sequence (P78324 31-370): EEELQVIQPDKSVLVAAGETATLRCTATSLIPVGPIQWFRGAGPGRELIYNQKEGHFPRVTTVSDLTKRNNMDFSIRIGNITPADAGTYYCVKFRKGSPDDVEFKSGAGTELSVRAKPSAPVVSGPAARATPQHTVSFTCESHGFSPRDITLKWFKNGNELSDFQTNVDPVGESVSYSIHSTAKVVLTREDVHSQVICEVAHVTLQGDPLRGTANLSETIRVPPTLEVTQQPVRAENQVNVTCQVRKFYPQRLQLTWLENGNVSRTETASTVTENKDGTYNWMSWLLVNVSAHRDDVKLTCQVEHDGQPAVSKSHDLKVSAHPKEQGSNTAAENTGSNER

[12] = molecular target: T2, Fc-tagged marmoset SIRPA (accession no. JAB51896) (marmoset, UniProt U3F8F0 31-373); assay: ELISA, plate coated with Fc-tagged SIRPA
T2 sequence: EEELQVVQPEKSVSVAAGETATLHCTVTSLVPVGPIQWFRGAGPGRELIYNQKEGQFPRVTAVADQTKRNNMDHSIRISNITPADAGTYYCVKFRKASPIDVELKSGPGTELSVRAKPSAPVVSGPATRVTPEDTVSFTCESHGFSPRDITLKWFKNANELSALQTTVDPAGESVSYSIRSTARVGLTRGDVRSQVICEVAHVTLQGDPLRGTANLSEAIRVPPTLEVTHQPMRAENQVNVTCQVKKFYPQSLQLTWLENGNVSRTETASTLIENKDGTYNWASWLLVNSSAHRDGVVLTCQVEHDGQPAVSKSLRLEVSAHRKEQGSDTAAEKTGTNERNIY
Procedure: (§3) In an ELISA assay, 96-well Immulon HBX plates were coated with His- or Fc-tagged SIRPA of a given species, as indicated, at 1 μg/mL in PBS overnight at 4C. Plates were blocked in 5% (w/v) bovine serum albumin in PBS for 1 hour, after which they were washed 3 times with PBS/0.05% Tween 20 (PBS/T). Anti-SIRPA antibodies were added to the plate in a dilution series and were incubated at room temperature for 2 hours, after which the unbound antibody was removed by washing with PBS/T. Horseradish peroxidase-conjugated anti-mouse IgG or anti-human kappa light chain (Jackson Immunoresearch) was then added to the wells and incubated for 30 minutes. Unbound antibody was removed by washing with PBS/T, after which bound antibody was detected using tetramethylbenzidine (TMB). The reaction was stopped with 2N H₂SO₄, after which the plates were read at A450.

[13] = molecular target: T3, Fc-tagged dog SIRPA (accession no. XP005634938) (dog, UniProt A0A8I3P880); assay: ELISA, plate coated with Fc-tagged SIRPA
T3 sequence: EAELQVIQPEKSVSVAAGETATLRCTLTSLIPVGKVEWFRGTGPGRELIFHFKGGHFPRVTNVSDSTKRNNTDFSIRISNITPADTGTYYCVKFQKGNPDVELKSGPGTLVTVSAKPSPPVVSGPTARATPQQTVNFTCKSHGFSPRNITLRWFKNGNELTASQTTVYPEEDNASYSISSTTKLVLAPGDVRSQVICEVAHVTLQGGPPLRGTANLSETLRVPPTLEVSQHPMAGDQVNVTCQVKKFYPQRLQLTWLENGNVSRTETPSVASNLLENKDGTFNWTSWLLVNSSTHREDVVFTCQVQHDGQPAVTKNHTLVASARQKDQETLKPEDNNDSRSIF
Procedure: as §3

[14] = molecular target: T4, histidine-tagged human SIRPA v1 (Novoprotein) (human, UniProt P78324 31-370, limits assumed); assay: BLI (Octet), antibody on anti-human IgG Fc sensor, His-huSIRPA in solution, single-curve 1:1 fit
T4 construct: bought, soluble; also called huSIRPA; soluble huSIRPA; not shown: histidine tag
T4 sequence (P78324 31-370 limits assumed): as the sequence (P78324 31-370) above

[15] = molecular target: T4, histidine-tagged human SIRPA v1 …; assay: BLI (Octet)
Procedure: Initial characterization of affinity matured anti-SIRPA antibodies disclosed herein comprised acquiring antigen affinity measurements using bio-layer interferometry (BLI) on a Pall ForteBio Octet RED96 instrument. Immobilized anti-mouse IgG Fc or anti-human IgG Fc antibodies captured murine anti-SIRPA 3F79 antibody and humanized anti-SIRPA 3F79 antibody on biosensors, respectively. Single cycle kinetics were performed with 25 nM huSIRPA [which variant?] or 50 nM huSIRPB 1 flowed over captured antibody 3F79 to record traces. Data analysis was performed using ForteBio Data Analysis Software, version 9.0. Standard kinetic buffer (PBS, 0.100 BSA, 0.02% Tween-20, pH 7.2) was used for the assay and for preparing reagents. […] 50 nM of histidine-tagged human SIRPA vi or human SIRPB1 (Novoprotein, Summit, NJ, USA) were then bound to the captured anti-SIRPA antibody coated surface (200 s association time, 900 s dissociation time). […] Single-curve kinetic analysis was performed using a 1:1 interaction model to extract association and dissociation rate constants (ka and kd, respectively) for each antibody. Affinity constants (KD) were calculated from the ratio kd/ka.

[16] = molecular target: T5, human SIRPA v1 on BWZ cells (BWZ-huSIRPA) (human, UniProt P78324 31-504); assay: flow cytometry titration on BWZ-huSIRPA cells, 4 C
T5 construct: also called BWZ cells overexpressing human SIRPA; BWZ-huSIRPA v1 cells
T5 sequence (P78324 31-504): as the sequence (P78324 31-504 V302A) above, with A272V counted along it
Procedure: After addition of fluorescently labeled secondary antibody and brief washing steps, MFI values as a function of titrated antibody concentration was recorded via FACS analysis. […] Receptor bound antibodies were detected by staining cells with anti-human IgG PE secondary antibody. Curves were fit using nonlinear regression analysis with Graphpad Prism 6 software.

cynoSIRPA XPO15313153.1 = molecular target: T6, cynoSIRPA XPO15313153.1 (cynomolgus, UniProt A0A2K5VYQ9); assay: ELISA, plate coated with tagged SIRPA at 1 ug/mL
T6 construct: not tied one by one in the text; also called cynomolgus SIRPA; not shown: Fc or His tag
T6 sequence: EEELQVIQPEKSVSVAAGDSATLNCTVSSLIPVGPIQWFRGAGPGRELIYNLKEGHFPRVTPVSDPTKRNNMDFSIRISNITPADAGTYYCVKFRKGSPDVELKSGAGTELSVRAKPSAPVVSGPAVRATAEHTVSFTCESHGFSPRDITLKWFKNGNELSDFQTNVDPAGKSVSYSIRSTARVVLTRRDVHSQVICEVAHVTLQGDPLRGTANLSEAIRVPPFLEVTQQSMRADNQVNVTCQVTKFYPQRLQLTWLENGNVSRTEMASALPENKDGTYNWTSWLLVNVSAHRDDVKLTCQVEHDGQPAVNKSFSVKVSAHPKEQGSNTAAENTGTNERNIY
Procedure: as §3

rat SIRPA = molecular target: T7, rat SIRPA (rat, UniProt P97710 32-373, limits assumed); assay: ELISA, plate coated with tagged SIRPA at 1 ug/mL
T7 sequence (looked up): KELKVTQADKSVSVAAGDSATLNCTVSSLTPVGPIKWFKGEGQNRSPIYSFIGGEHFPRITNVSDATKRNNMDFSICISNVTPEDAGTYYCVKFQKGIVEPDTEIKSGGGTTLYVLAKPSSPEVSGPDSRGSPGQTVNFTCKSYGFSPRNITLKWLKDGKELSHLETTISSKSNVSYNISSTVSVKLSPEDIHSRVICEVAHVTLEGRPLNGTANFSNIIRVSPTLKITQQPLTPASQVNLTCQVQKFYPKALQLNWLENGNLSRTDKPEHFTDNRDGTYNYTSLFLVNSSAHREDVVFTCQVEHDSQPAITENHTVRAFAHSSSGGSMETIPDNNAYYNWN
Procedure: as §3

huSIRPA v.2 NP542970.1 = molecular target: T8, huSIRPA v.2 NP542970.1 (human, UniProt P78324 31-373, limits assumed); assay: ELISA, plate coated with tagged SIRPA at 1 ug/mL
T8 construct: see m48; also called human SIRPA v2; human SIRPA-Fc (v2)
T8 sequence (P78324 31-373 limits assumed): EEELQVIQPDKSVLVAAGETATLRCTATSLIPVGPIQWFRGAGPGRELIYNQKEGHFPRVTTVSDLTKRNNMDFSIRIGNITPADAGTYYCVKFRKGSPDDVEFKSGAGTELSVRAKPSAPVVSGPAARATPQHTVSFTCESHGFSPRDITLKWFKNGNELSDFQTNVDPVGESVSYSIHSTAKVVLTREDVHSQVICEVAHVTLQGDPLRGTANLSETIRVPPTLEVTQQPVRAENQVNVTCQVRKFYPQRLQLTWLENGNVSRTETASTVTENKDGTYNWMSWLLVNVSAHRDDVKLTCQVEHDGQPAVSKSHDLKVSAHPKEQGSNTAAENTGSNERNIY
Procedure: as §3

[17] = molecular target: T1, human SIRPA on human macrophages …; assay: cell-based or functional assay; remark: listed apart in the source

Sequence of human SIRPA W315A (V5-tagged library clone on HEK-293T cells) (P78324 31-504 W315A): as the sequence (P78324 31-504 V302A) above, with A272V, W285A counted along it

Binding Reactivity (% WT) [1]: 117 % WT
Binding Reactivity (% WT) [2]: 92.3 % WT
Binding Reactivity (% WT) [3]: 3.3 % WT
Binding Reactivity (% WT) [4]: 121 % WT
Binding Reactivity (% WT) [5]: 17.9 % WT
Binding Reactivity (% WT) [6]: 107 % WT
Binding Reactivity (% WT) [7]: 3.8 % WT
Binding Reactivity (% WT) [8]: 151 % WT
Binding Reactivity (% WT) [9]: 125 % WT
Binding Reactivity (% WT) [10]: 117 % WT
B1: 3F9 Fab (Fab, V domains shown)
VH: EVKLVESGGGLVKPGGSLKLSCAASGFTFSSYAMSWVRQTPEKRLEWVATISDYGGSYTYYPDSVKGRFTISRDNAKYTLYLQMSSLRSEDTALYYCARPPYDDYYGGFAYWGQGTLVTVSA
VL: DIVLTQSPASLAVSLGQRATISCRASKSVSSSGYSYMHWYQQKPGQPPKLLIYLASNLESGVPARFSGSGSGTDFTLNIHPVEEEDAATYYCQHNRELPCTFGGGTKLEIK

SIRPA IC50 (nM), downregulation on U937 cells [11]: 0.187 nM
SIRPA Max % DR, U937 cells [11]: 76%
EC50 [12]: 4.3 nM
EC50 [13]: 0.83 nM
Kd [14]: 0.646 nM
koff [14]: 0.000113 s⁻¹
kon [14]: 174000 M⁻¹ s⁻¹
fold increase in affinity relative to parental h3F9 [15]: ~10 fold
EC50 [16]: 0.49 nM
EC50 (cynoSIRPA XPO15313153.1): 0.107 nM
binding result (rat SIRPA): no binding
EC50 (huSIRPA v.2 NP542970.1): 0.082 nM
Phagocytosis, fold increase over baseline activity [17]: 1.68 fold
SIRPA IC50 (nM), downregulation on human primary macrophages [17]: 0.0542 nM
SIRPA Max % DR, human primary macrophages [17]: 91%
B2: 3F9-22 (antibody)
heavy: not shown
light: DIQLTQSPSSLSASVGDRVTITCRASKSVSSGGYSYMHWYQQKPGKAPKLLIYLASNLESGVPSRFSGSGSGTDFTLTISSVQPEDFATYYCQHNRELPVTFGQGTKLEIKRTVAAPSVFIFPPSDEQLKSGTASVVCLLNNFYPREAKVQWKVDNALQSGNSQESVTEQDSKDSTYSLSSTLTLSKADYEKHKVYACEVTHQGLSSPVTKSFNRGEC
notes: also called mAb 3F9-22; hu3F9-22

Source: patent US20240301071A1 (Alector, published 2024)
